Biological target: T1, Bxb1 integrase (Mycobacterium phage Bxb1?) (UniProt Q9B086)
T1 sequence: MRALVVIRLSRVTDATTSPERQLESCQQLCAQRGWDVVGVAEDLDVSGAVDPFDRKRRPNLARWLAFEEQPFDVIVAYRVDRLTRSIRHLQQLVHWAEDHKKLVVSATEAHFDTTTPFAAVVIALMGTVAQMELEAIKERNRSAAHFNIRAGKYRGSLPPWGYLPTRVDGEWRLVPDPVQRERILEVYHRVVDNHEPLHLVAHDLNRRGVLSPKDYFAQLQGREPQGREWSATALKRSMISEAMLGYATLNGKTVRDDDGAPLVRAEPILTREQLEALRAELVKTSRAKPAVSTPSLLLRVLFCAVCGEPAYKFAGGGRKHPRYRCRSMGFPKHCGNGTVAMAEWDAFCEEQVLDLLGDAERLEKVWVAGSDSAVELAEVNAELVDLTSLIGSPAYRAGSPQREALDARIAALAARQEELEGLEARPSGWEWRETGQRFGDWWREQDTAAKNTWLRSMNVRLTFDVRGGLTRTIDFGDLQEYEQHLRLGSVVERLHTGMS
Assay: cell_activity
Conditions: in vivo mouse liver, 1E11 vg Bxb1 AdV, 1E12 vg AAV; about 7% at 3E10 vg

Substance “AttP GT/GA dual site in Rosa26 of AttP mice with 38 bp GT AttB AAV donor” has an activity (% integration) of 11.

Reference: US20250057980
